# In IntAct's records for PubMed 21391237:
# B1: Transmembrane protein 43 (Homo sapiens), Q9BTV4 (parent)
# chain: MAANYSSTSTRREHVKVKTSSQPGFLERLSETSGGMFVGLMAFLLSFYLIFTNEGRALKTATSLAEGLSLVVSPDSIHSVAPENEGRLVHIIGALRTSKLLSDPNYGVHLPAVKLRRHVEMYQWVETEESREYTEDGQVKKETRYSYNTEWRSEIINSKNFDREIGHKNPSAMAVESFMATAPFVQIGRFFLSSGLIDKVDNFKSLSLSKLEDPHVDIIRRGDFFYHSENPKYPEVGDLRVSFSYAGLSGDDPDLGPAHVVTVIARQRGDQLVPFSTKSGDTLLLLHHGDFSAEEVFHRELRSNSMKTWGLRAAGWMAMFMGLNLMTRILYTLVDWFPVFRDLVNIGLKAFAFCVATSLTLLTVAAGWLFYRPLWALLIAGLALVPILVARTRVPAKKLE
# B2: Transmembrane protein 43 (Homo sapiens), Q9BTV4 (parent)
# chain: B1 chain
# partner: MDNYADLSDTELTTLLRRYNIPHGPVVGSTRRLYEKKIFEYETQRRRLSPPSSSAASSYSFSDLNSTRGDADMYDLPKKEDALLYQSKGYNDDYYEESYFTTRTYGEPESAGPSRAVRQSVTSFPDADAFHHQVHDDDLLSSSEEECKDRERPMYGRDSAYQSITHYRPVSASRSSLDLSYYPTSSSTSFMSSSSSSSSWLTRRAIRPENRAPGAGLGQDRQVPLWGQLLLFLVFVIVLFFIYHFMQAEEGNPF
# Variants of: B1
# Settings: with sun2_human SUN2, Q9UH99
# sun2_human SUN2, Q9UH99, sequence (Q9UH99 whole entry): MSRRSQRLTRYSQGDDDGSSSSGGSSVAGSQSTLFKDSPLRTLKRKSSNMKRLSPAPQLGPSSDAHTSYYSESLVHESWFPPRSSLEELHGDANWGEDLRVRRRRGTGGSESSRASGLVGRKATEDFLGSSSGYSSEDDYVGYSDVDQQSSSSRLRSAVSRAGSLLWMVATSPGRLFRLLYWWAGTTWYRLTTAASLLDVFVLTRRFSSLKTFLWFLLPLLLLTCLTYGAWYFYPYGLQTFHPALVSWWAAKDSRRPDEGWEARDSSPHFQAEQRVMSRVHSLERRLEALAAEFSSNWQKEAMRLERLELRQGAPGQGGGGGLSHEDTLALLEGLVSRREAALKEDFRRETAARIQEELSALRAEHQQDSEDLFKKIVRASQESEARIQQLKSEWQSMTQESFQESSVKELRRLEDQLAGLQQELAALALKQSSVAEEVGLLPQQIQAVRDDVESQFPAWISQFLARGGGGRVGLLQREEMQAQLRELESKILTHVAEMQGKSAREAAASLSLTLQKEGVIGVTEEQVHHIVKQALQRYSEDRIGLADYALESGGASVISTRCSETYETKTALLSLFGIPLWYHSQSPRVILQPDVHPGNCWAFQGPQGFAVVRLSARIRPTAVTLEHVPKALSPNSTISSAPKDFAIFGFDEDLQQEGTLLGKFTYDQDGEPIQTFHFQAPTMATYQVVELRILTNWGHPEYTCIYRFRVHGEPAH
row,effect of a mutation on the interaction,Variant
1,decreasing interaction strength,I91V
2,decreasing interaction strength,E85K

# Variants of: B2
# Settings: with emd_human EMD
row,effect of a mutation on the interaction,Variant
1,with no effect,E85K
2,with no effect,I91V

# Variants of: B2
# Settings: with emd_human EMD
# Remark: another data set of the same source
row,effect of a mutation on the interaction,Variant
1,decreasing interaction strength,E85K
2,decreasing interaction strength,I91V
